Results on eleven substances are retold here after US20100298225A1, “PEPTIDE GAP JUNCTION MODULATORS” (priority 2007, published 2010).

Entries after “also recorded” stand apart in the source; their conditions may differ.

Experiment [1] has as its target T1, carboxyl terminal domain (CT) of Cx43 (Rattus norvegicus, UniProt P08050).
T1 construct: GST (N, cleaved yes); made in house; host or cells: E. coli BL-21
Nature of the experiment: Peptide binding to Cx43CT determined using surface plasmon resonance (SPR). The note with it: for SPR respons: immobilised recombinant Cx43CT; for SPR data normalised on Mw: value = (SPRrespons*100)/Mw. The protocol:
277(39):36706-36714 (2002), which is hereby incorporated by reference in its entirety. Briefly, cDNA derived from rat Cx43 was inserted into pGEX-6P-2 (Amersham) and expressed in E. coli (BL-21). The resultant GST-fusion protein was cleaved from the GST PreScission Protease® (Amersham Biosciences). The recombinant product after cleavage contained the sequence 255-382 of rCx43 preceded by four additional amino acids (GPLG). Protein concentration was measured using the Bio-Rad DC Protein Assay. Protein purity was assessed by SDS-PAGE.
Recombinant Cx43CT was covalently bound to a carboxylmethyl dextran matrix (Salamon et al., “Surface Plasmon Resonance Spectroscopy as a Tool for Investigating the Biochemical and Biophysical Properties of Membrane Protein Systems. II: Applications to Biological Systems,” Biochim. Biophys. Acta 1331(2):131-152 (1997), which is hereby incorporated by reference in its entirety). Specific peptides were presented and, when feasible, dissociation constants (KD) were calculated from the time course of binding and unbinding of the ligand, using a 1:1 (Langmuir) association and dissociation kinetic model (Biacore software package). In both phases (association and dissociation), the first 5-8 seconds of recording were not included in the fit, to avoid artifacts resulting from peptide distribution within the flow cells (Lang et al., “Surface Plasmon Resonance as a Method to Study the Kinetics and Amplitude of Protein-protein Binding,” in PRACTICAL METHODS IN CARDIOVASCULAR RESEARCH 936-947 (Stefan Dhein, Friedrich Wilhelm Mohr & Mario Delmar eds., 2005), which is hereby incorporated by reference in its entirety).
The peptides shown in table 2 and 3 were tested for binding to the carboxyl terminal domain (CT) of Cx43 using Surface Plasmon Resonance (“SPR”). SPR is a method that was used to identify the original RXPE sequence (Shibayama et al., “Identification of a Novel Peptide that Interferes with the Chemical Regulation of Connexin-43,” Circ. Res. 98:1365-72 (2006)). The amplitude of the response is also a function of the mass of the ligate, and the normalized data according to the individual peptide Mw's are shown in table 3.
In general terms: In SPR one partner is held on a chip, and binding of the other changes the refractive index at the surface.

Experiment [2] addresses T2, Cx43-expressing N2a cells (Rattus norvegicus, UniProt P08050).
T2 construct: expressed in transfected cells; host or cells: N2a (neuroblastoma) cells
In words: Dual patch clamp: octanol-induced uncoupling, junctional conductance between cell pairs. It is filed as cell-based. The method, then:
Experiments were conducted on N2a (Neuroblastoma) cells. Cx43 was expressed either in a lac-switch stable system (induced by 0.1-1.0 mM of IPTG (Zhong et al., “LacSwitch II Regulation of Connexin43 cDNA Expression Enables Gap-junction Single-channel Analysis,” Biotechniques 34(5):1034-1034, 1041-1044, 1046 (2003), which is hereby incorporated by reference in its entirety)) or transiently using an IRES plasmid coding for eGFP (Seki et al., “Modifications in the Biophysical Properties of Connexin43 Channels by a Peptide of the Cytoplasmic Loop Region,” Circ. Res. 95(4):e22-e28 (2004); Seki et al., “Loss of Electrical Communication, but Not Plaque Formation, After Mutations in the Cytoplasmic Loop of Connexin43,” Heart Rhythm. 1(2):227-233 (2004), which are hereby incorporated by reference in their entirety). M257 (a mutant of Cx43 truncated at amino acid 257 (Morley et al., “Intramolecular Interactions Mediate pH Regulation of Connexin43 Channels,” Biophys. J. 70(3):1294-1302 (1996), which is hereby incorporated by reference in its entirety)) was transiently expressed in N2a cells also using an eGFP-containing IRES plasmid. Cells were placed on the stage of an inverted microscope equipped for epifluorescence (Nikon Diaphoto200, Filter: 520 to 560 nm). Junctional current (I) was recorded from eGFP-positive cell pairs in a dual-whole-cell voltage clamp configuration (holding potentials: −40 mV; transjuctional voltage, Vj, +[…]; step duration, 10-30 seconds). Patch pipettes were filled with a cesium-containing solution (Seki et al., “Modifications in the Biophysical Properties of Connexin43 Channels by a Peptide of the Cytoplasmic Loop Region,” Circ. Res. 95(4):e22-e28 (2004); Seki et al., “Loss of Electrical Communication, but Not Plaque Formation, After Mutations in the Cytoplasmic Loop of Connexin43,” Heart Rhythm. 1(2):227-233 (2004), which are hereby incorporated by reference in their entirety). For the low pH experiments, HEPES was replaced by MES (10 mM). Pipette resistance was 4.0-6.0MΩ. Synthetic peptides were diluted in the pipette solution to a final concentration of 0.1 mM. During recording, cells were kept at room temperature in a cesium-containing solution (Seki et al., “Modifications in the Biophysical Properties of Connexin43 Channels by a Peptide of the Cytoplasmic Loop Region,” Circ. Res. 95(4):e22-e28 (2004); Seki et al., “Loss of Electrical Communication, but Not Plaque Formation, After Mutations in the Cytoplasmic Loop of Connexin43,” Heart Rhythm. 1(2):227-233 (2004), which are hereby incorporated by reference in their entirety). For some experiments, octanol (2.0 mM) was superfused during recording. Data acquisition and recording, and criteria for single channel detection were as reported in Seki et al., “Modifications in the Biophysical Properties of Connexin43 Channels by a Peptide of the Cytoplasmic Loop Region,” Circ. Res. 95(4):e22-e28 (2004) and Seki et al., “Loss of Electrical Communication, but Not Plaque Formation, After Mutations in the Cytoplasmic Loop of Connexin43,” Heart Rhythm. 1(2):227-233 (2004), which are hereby incorporated by reference in their entirety.
Compounds were tested for their ability to interfere with octanol-induced uncoupling. Compounds are tested for their ability to interfere with acidification induces uncoupling.
Experiments were modeled after those described in Shibayama et al (2006). Junctional conductance between Cx43-expressing N2a cell pairs was assessed using conventional dual patch clamp. Peptides were diluted in the patch pipette solution and the cells will be exposed either to octanol or to a low intracellular pH. Control experiments were carried out in the absence of the compound. The results are shown in FIGS. 3A-E, which are graphs of the time course of octanol-induced changes in coupling recorded from Cx43-expressing N2a cells. FIGS. 3A-E relate to peptides 2517, 2518, 2529, 2520 and 2624 respectively. […]

T2 sequence (P08050 whole entry): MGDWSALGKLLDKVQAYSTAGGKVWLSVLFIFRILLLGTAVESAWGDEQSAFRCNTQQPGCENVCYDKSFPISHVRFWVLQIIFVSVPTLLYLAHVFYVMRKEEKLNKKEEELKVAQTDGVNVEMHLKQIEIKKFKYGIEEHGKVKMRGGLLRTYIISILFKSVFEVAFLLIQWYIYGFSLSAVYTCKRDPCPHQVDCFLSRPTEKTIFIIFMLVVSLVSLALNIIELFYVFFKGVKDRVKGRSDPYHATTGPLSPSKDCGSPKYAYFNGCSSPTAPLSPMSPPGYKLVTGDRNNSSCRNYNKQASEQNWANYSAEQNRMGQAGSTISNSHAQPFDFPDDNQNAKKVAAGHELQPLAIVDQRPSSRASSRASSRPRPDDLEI
T1 sequence (P08050 255-382): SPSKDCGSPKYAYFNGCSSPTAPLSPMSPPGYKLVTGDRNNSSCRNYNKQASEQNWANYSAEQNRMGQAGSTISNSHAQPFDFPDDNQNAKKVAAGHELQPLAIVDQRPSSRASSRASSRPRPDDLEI

Consider “Ac-Arg-Arg-Asn-Tyr-Ala-Val-Pro-Phe-Arg-Arg-Asn-Tyr-NH2 (Ac-RRNYAVPFRRNY-NH2) [Compound 2511]”, for which the SPR respons in experiment [1] (peptide 25 uM) was 16.2 arbitrary units; in experiment [1] (peptide 100 uM), 90.5 arbitrary units; in experiment [1] (peptide 250 uM), 214.2 arbitrary units; in experiment [1] (peptide 500 uM), 389.6 arbitrary units; in experiment [1] (peptide 1 mM), 691.5 arbitrary units.

Take “Ac-Arg-Arg-Asn-Tyr-Gly-Gly-Gly-Arg-Arg-Asn-Tyr-NH2 (Ac-RRNYGGGRRNY-NH2) [Compound 2509]”: the SPR respons in experiment [1] (peptide 25 uM) is listed as 21.5 arbitrary units; in experiment [1] (peptide 100 uM), 62.5 arbitrary units; in experiment [1] (peptide 250 uM), 148.5 arbitrary units; in experiment [1] (peptide 500 uM), 280.8 arbitrary units; in experiment [1] (peptide 1 mM), 478.9 arbitrary units.

For the substance “Ac-Arg-Arg-Asn-Tyr-Gly-Gly-Gly-Ser-Ala-Val-Pro-Phe-Tyr-Arg-Arg-Asn-Tyr-NH2 (Ac-RRNYGGGSAVPFYRRNY-NH2) [Compound 2508]”, the SPR respons in experiment [1] (peptide 25 uM) is recorded as 31.1 arbitrary units; in experiment [1] (peptide 100 uM) it was 121.9 arbitrary units; in experiment [1] (peptide 250 uM), 284.6 arbitrary units; in experiment [1] (peptide 500 uM), 546.8 arbitrary units; in experiment [1] (peptide 1 mM), 1024.5 arbitrary units.

As for “Ac-Arg-Arg-Asn-Tyr-Gly-Gly-Gly-Ser-Ala-Val-Pro-Phe-Tyr-Ser-His-Ser-Arg-Arg-Asn-Tyr-Gly-Gly-Gly-Ser-Ala-Val-Pro-Phe-Tyr-Ser-His-Ser-Arg-Arg-Asn-Tyr-Gly-Gly-Gly-Ser-Ala-Val-Pro-Phe-Tyr-Ser-His-Ser-Arg-Arg-Asn-Tyr-NH2 (Ac-RRNYGGGSAVPFYSHSRRNYGGGSAVPFYSHSRRNYGGGSAVPFYSHSRRNY-NH2) [Compound 2372]”, the “Ability to re-open gap junctions closed by the uncoupler (revert uncoupled cells to coupled)” value in experiment [2] (0.1 mM peptide in internal pipette solution, octanol superfusion) was “able to revert uncoupled cells to couple cells; also recorded: re-open gap junctions that were initially closed by the uncoupler”. Moreover, the “Effect on octanol-induced uncoupling” value in experiment [2] (0.1 mM peptide in internal pipette solution, octanol superfusion, Vj 60 mV) is given as “prevented octanol-induced uncoupling”. In experiment [2] (0.1 mM peptide in pipette, Gj relative to value before octanol, N=7 pairs), the “Average junctional conductance (Gj) as a function of time after onset of octanol” value was “a slight decrease in Gj was apparent; also recorded: decreased at first and then increased”. Also, the “Decrease in Gj three minutes after onset of octanol” value in experiment [2] (junctional current traces of a cell pair, peptide in internal pipette solution) was “no or only a minor decrease in Gj”. In addition, the “Cell pairs that remained coupled / uncoupled following onset of octanol superfusion” value in experiment [2] (seven cell pairs, peptide in pipette, uncoupling = zero junctional current at 60-mV pulse) is on record as “none of the cell pairs exposed to 2372 uncoupled”.

Consider “Ac-Arg-Arg-Asn-Tyr-Gly-Gly-Ser-Ala-Val-Pro-Phe-Tyr-Ser-His-Arg-Arg-Asn-Tyr-NH2 (Ac-RRNYGGSAVPFYSHRRNY-NH2) [Compound 2510]”, for which the SPR respons in experiment [1] (peptide 25 uM) is reported as 40.3 arbitrary units; in experiment [1] (peptide 100 uM) it was 176.2 arbitrary units; in experiment [1] (peptide 250 uM) it was 331.5 arbitrary units; in experiment [1] (peptide 500 uM), 643.3 arbitrary units; in experiment [1] (peptide 1 mM), 1188 arbitrary units.

As for “Ac-Arg-Arg-Asn-Tyr-NH2 (Ac-RRNY-NH2) [Compound 2498]”, in experiment [1] (peptide 500 uM), the SPR respons was 50.9 arbitrary units and the “SPR data normalised on Mw” value was found to be 7.9. In experiment [1] (peptide 1 mM), the SPR respons came to 91 arbitrary units and the “SPR data normalised on Mw” value was determined as 14.0.

Consider “Ac-Arg-Arg-Asn-Tyr-Ser-Ala-Val-Pro-Phe-Tyr-Ser-His-Ser-Arg-Arg-Asn-Tyr-NH2 (Ac-RRNYSAVPFYSHSRRNY-NH2) [Compound 2506]”, for which the SPR respons in experiment [1] (peptide 25 uM) worked out at 51.7 arbitrary units; in experiment [1] (peptide 100 uM), 117.2 arbitrary units; in experiment [1] (peptide 250 uM), 327 arbitrary units; in experiment [1] (peptide 500 uM), 561.8 arbitrary units; in experiment [1] (peptide 1 mM), 1172.8 arbitrary units.

Take “Ac-Arg-Arg-Asn-Tyr-Ser-His-Ser-Arg-Arg-Asn-Tyr-NH2 (Ac-RRNYSHSRRNY-NH2) [Compound 2507]”: the SPR respons was found to be 42.3 arbitrary units in experiment [1] (peptide 25 uM); 113.5 arbitrary units in experiment [1] (peptide 100 uM); 254.2 arbitrary units in experiment [1] (peptide 250 uM); 438.5 arbitrary units in experiment [1] (peptide 500 uM); 703.2 arbitrary units in experiment [1] (peptide 1 mM).

Turning to “Ac-Arg-Arg-Asn-Tyr-Val-Pro-Arg-Arg-Asn-Tyr-NH2 (Ac-RRNYVPRRNY-NH2) [Compound 2512]”, the SPR respons came to 14.8 arbitrary units in experiment [1] (peptide 25 uM); 50.7 arbitrary units in experiment [1] (peptide 100 uM); 117.2 arbitrary units in experiment [1] (peptide 250 uM); 227.3 arbitrary units in experiment [1] (peptide 500 uM); 394.7 arbitrary units in experiment [1] (peptide 1 mM).

Consider “Ac-Tyr-Asn-Arg-Arg-Gly-Gly-Gly-Ser-Ala-Val-Pro-Phe-Tyr-Ser-His-Ser-Tyr-Asn-Arg-Arg-NH2 (Ac-YNRRGGGSAVPFYSHSYNRR-NH2) [Compound 2496]”, for which the SPR respons amounted to 67.7 arbitrary units in experiment [1] (peptide 25 uM); 155.9 arbitrary units in experiment [1] (peptide 100 uM); 358.1 arbitrary units in experiment [1] (peptide 250 uM); 738.6 arbitrary units in experiment [1] (peptide 500 uM); 1402 arbitrary units in experiment [1] (peptide 1 mM).

As to “Ac-Tyr-Asn-Arg-Arg-NH2 (Ac-YNRR-NH2) [Compound 2499]”, in experiment [1] (peptide 1 mM), the SPR respons is listed as 69.4 arbitrary units and the “SPR data normalised on Mw” value is 10.7.
